Read-outs that look alike come from different tables or passages of the source.
Columns and labels:
Test in all cases: transient-state stopped-flow spectrofluorometry
[1] = biological target: L47fUAA GCK (human pancreatic glucokinase with L-(7-hydroxycoumarin-4-yl)ethylglycine in place of Leu47) (human) (UniProt P35557)
[2] = biological target: L47fUAA GCK (human pancreatic glucokinase with L-(7-hydroxycoumarin-4-yl)ethylglycine in place of Leu47) (human) (UniProt P35557); remark: listed apart in the source
[3] = biological target: L47fUAA GCK (human pancreatic glucokinase with L-(7-hydroxycoumarin-4-yl)ethylglycine in place of Leu47) (human) (UniProt P35557); remark: listed apart in the source

“glucokinase regulatory protein (GKRP) (from UniProt Q14397 1-625) (natural protein)” was tested, and the K2 (step 2, equilibrium constant of isomerisation) [1] was 0.72, the Kd [1] was 123 nM and the Kd,intrinsic (step 1, encounter complex) [1] was 210 nM. It also gave a k1 (step 1, formation of the encounter complex) [1] of 170000 M⁻¹ s⁻¹, a k−1 (step 1, dissociation of the encounter complex) [1] of 0.036 s⁻¹ and a k−2 (step 2, isomerisation reverse) [1] of 0.36 s⁻¹. The Kd [2] was 124 nM, the K2 (step 2, equilibrium constant of isomerisation) [3] was 0.51 and the Kd [3] was 21000 nM. For the same substance, the Kd,intrinsic (step 1, encounter complex) [3] was 32000 nM, the k1 (step 1, formation of the encounter complex) [3] was 64000 M⁻¹ s⁻¹ and the k−1 (step 1, dissociation of the encounter complex) [3] was 2.06 s⁻¹. The k−2 (step 2, isomerisation reverse) [3] was 0.21 s⁻¹.

From publication PMC7140980
